This test deals with GRIP (full length, 1112 amino acids, 130 kDa protein) (rat).
Take “myc-tagged GluR2C (C-terminal 50 amino acids of the GluR2 subunit, transfected into neurons) (from UniProt P19491) (receptor)”: the GluR1 Clusters (synaptic AMPA receptor clusters in transfected spinal cord neurons) (GluR1 Clusters) is 1.2.

Regarding “myc-tagged GluR1C (C-terminal 50 amino acids of the GluR1 subunit, transfected into neurons) (receptor)”, the GluR1 Clusters (synaptic AMPA receptor clusters in transfected spinal cord neurons) (GluR1 Clusters) is 3.6.

The substance “myc-tagged GluR2C Δ7 (GluR2 C-terminus lacking the last 7 amino acids, transfected into neurons) (from UniProt P19491) (receptor)” had a GluR1 Clusters (synaptic AMPA receptor clusters in transfected spinal cord neurons) (GluR1 Clusters) of 2.9.

(Values after patent US6001575.)
